Key:
Assay in all cases: SPR
[1] = target: T1, human FcγRIIa (131R), His- and GST-tagged (human, UniProt P12318 34-217)
T1 construct: Expressed in HEK293T cells, purified by nickel chromatography; also called R131 FcγRIIa; not shown: 6xHis and GST tags of the pTT5 vector
T1 sequence (looked up): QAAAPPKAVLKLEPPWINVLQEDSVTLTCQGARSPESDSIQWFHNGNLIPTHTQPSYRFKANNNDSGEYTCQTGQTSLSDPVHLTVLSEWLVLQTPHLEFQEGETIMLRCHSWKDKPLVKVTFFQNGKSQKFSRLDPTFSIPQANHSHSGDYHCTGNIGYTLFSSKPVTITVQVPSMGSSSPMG

[2] = target: T2, human FcγRIIa (131H), His- and GST-tagged (human, UniProt P12318 34-217)
T2 construct: also called H131 FcγRIIa; HIIa; not shown: 6xHis and GST tags of the pTT5 vector
T2 sequence (looked up): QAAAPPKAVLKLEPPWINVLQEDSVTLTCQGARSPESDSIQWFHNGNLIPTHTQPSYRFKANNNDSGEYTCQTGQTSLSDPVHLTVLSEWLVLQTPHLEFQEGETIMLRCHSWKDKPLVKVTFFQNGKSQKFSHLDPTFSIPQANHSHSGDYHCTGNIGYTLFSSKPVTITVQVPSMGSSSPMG

[3] = target: T3, human FcγRIIIa (158V), His- and GST-tagged (human, UniProt P08637 17-208)
T3 construct: also called V158 FcγRIIIa; VIIIa; not shown: 6xHis and GST tags of the pTT5 vector
T3 sequence (P08637 17-208 F176V): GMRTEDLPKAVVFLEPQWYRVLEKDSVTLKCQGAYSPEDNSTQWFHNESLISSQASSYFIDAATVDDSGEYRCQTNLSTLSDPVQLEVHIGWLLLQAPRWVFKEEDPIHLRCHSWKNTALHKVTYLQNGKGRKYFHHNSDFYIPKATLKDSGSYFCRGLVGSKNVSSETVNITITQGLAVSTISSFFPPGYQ

[4] = target: T4, human FcγRI receptor protein (R&D Systems) (human, UniProt P12314 16-288)
T4 construct: also called soluble FcγRI; solFcγRI
T4 sequence (P12314 16-288 limits assumed): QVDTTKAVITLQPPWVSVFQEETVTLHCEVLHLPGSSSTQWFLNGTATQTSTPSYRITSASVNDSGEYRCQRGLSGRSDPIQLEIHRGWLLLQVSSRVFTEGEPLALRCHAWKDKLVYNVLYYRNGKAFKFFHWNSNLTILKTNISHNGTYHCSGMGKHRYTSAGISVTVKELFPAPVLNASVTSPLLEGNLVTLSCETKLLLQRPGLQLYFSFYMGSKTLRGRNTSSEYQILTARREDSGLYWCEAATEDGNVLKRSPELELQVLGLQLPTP

[5] = target: T5, human FcγRIIb receptor protein (R&D Systems) (human, UniProt P31994 46-217)
T5 construct: Bought protein injected over captured antibody in Biacore; also called CD32b
T5 sequence (looked up): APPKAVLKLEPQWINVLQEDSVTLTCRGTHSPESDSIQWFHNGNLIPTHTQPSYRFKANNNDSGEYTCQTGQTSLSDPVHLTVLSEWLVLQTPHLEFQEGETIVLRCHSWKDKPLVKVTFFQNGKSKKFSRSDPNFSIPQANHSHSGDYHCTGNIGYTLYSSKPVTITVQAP

B1: L235D/S267E (antibody, human IgG1, kappa)
heavy: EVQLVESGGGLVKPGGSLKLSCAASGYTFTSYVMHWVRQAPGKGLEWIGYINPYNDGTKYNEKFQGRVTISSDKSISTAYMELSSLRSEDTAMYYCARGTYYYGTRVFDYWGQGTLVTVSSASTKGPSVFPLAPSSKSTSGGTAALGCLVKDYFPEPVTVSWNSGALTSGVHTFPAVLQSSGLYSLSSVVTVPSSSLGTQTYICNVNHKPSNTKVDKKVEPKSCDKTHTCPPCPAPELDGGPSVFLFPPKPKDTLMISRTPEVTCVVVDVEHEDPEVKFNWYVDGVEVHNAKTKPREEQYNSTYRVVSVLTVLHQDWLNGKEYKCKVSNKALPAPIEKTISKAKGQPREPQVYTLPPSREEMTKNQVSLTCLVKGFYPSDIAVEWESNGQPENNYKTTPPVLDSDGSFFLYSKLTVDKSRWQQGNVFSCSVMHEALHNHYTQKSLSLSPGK
light: DIVMTQSPATLSLSPGERATLSCRSSKSLQNVNGNTYLYWFQQKPGQSPQLLIYRMSNLNSGVPDRFSGSGSGTEFTLTISSLEPEDFAVYYCMQHLEYPITFGAGTKLEIKRTVAAPSVFIFPPSDEQLKSGTASVVCLLNNFYPREAKVQWKVDNALQSGNSQESVTEQDSKDSTYSLSSTLTLSKADYEKHKVYACEVTHQGLSSPVTKSFNRGEC
notes: HuAM4G7 anti-CD19 IgG1 (m1) with these Fc substitutions, EU index; copies: 2 + 2
With B1 the “Fold vs WT IgG1” value [1] was 13 fold, the Kd [1] was 66.1 nM and the binding result [2] was “no binding”. For the same binder, the binding result [3] was “no binding”, the “Fold vs WT IgG1” value [4] was 0.00039 fold and the Kd [4] was 854 nM. For the same binder, the “Fold vs WT IgG1” value [5] was 16.7 fold and the Kd [5] was 88.1 nM.

B2: L235D/S267E/L328F (antibody, human IgG1, kappa)
heavy: EVQLVESGGGLVKPGGSLKLSCAASGYTFTSYVMHWVRQAPGKGLEWIGYINPYNDGTKYNEKFQGRVTISSDKSISTAYMELSSLRSEDTAMYYCARGTYYYGTRVFDYWGQGTLVTVSSASTKGPSVFPLAPSSKSTSGGTAALGCLVKDYFPEPVTVSWNSGALTSGVHTFPAVLQSSGLYSLSSVVTVPSSSLGTQTYICNVNHKPSNTKVDKKVEPKSCDKTHTCPPCPAPELDGGPSVFLFPPKPKDTLMISRTPEVTCVVVDVEHEDPEVKFNWYVDGVEVHNAKTKPREEQYNSTYRVVSVLTVLHQDWLNGKEYKCKVSNKAFPAPIEKTISKAKGQPREPQVYTLPPSREEMTKNQVSLTCLVKGFYPSDIAVEWESNGQPENNYKTTPPVLDSDGSFFLYSKLTVDKSRWQQGNVFSCSVMHEALHNHYTQKSLSLSPGK
light: DIVMTQSPATLSLSPGERATLSCRSSKSLQNVNGNTYLYWFQQKPGQSPQLLIYRMSNLNSGVPDRFSGSGSGTEFTLTISSLEPEDFAVYYCMQHLEYPITFGAGTKLEIKRTVAAPSVFIFPPSDEQLKSGTASVVCLLNNFYPREAKVQWKVDNALQSGNSQESVTEQDSKDSTYSLSSTLTLSKADYEKHKVYACEVTHQGLSSPVTKSFNRGEC
notes: as for B1
For B2, the “Fold vs WT IgG1” value [1] was 133 fold, the Kd [1] was 6.45 nM and the “Fold vs WT IgG1” value [2] was 0.275 fold. The Kd [2] was 2350 nM, the binding result [3] was “no binding” and the “Fold vs WT IgG1” value [4] was 0.00057 fold. The Kd [4] was 573 nM, the “Fold vs WT IgG1” value [5] was 80.4 fold and the Kd [5] was 18.2 nM.

B3: L235I (antibody, human IgG1, kappa)
heavy: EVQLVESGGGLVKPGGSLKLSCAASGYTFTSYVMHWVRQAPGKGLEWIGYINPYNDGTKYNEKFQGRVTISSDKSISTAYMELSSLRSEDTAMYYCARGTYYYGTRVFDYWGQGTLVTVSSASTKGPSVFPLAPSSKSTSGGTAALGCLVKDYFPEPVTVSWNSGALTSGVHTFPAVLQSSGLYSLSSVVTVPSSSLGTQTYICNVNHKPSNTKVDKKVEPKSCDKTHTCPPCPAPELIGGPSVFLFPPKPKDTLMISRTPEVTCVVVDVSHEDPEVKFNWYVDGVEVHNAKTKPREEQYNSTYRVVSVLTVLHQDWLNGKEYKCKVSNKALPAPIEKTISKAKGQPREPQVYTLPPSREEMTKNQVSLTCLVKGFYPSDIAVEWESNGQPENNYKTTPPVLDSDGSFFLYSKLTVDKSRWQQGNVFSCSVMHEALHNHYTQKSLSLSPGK
light: DIVMTQSPATLSLSPGERATLSCRSSKSLQNVNGNTYLYWFQQKPGQSPQLLIYRMSNLNSGVPDRFSGSGSGTEFTLTISSLEPEDFAVYYCMQHLEYPITFGAGTKLEIKRTVAAPSVFIFPPSDEQLKSGTASVVCLLNNFYPREAKVQWKVDNALQSGNSQESVTEQDSKDSTYSLSSTLTLSKADYEKHKVYACEVTHQGLSSPVTKSFNRGEC
notes: HuAM4G7 anti-CD19 IgG1 (m1) with this Fc substitution, EU index; copies: 2 + 2
With B3 the “Fold vs WT IgG1” value [1] was 0.666 fold, the Kd [1] was 1290 nM and the “Fold vs WT IgG1” value [2] was 0.181 fold. For the same binder, the Kd [2] was 3580 nM, the “Fold vs WT IgG1” value [3] was 0.903 fold and the Kd [3] was 212 nM. For the same binder, the “Fold vs WT IgG1” value [4] was 0.0197 fold, the Kd [4] was 16.7 nM and the “Fold vs WT IgG1” value [5] was 0.908 fold. The Kd [5] was 1620 nM.

B4: L235Y/G236D/S267E (antibody, human IgG1, kappa)
heavy: EVQLVESGGGLVKPGGSLKLSCAASGYTFTSYVMHWVRQAPGKGLEWIGYINPYNDGTKYNEKFQGRVTISSDKSISTAYMELSSLRSEDTAMYYCARGTYYYGTRVFDYWGQGTLVTVSSASTKGPSVFPLAPSSKSTSGGTAALGCLVKDYFPEPVTVSWNSGALTSGVHTFPAVLQSSGLYSLSSVVTVPSSSLGTQTYICNVNHKPSNTKVDKKVEPKSCDKTHTCPPCPAPELYDGPSVFLFPPKPKDTLMISRTPEVTCVVVDVEHEDPEVKFNWYVDGVEVHNAKTKPREEQYNSTYRVVSVLTVLHQDWLNGKEYKCKVSNKALPAPIEKTISKAKGQPREPQVYTLPPSREEMTKNQVSLTCLVKGFYPSDIAVEWESNGQPENNYKTTPPVLDSDGSFFLYSKLTVDKSRWQQGNVFSCSVMHEALHNHYTQKSLSLSPGK
light: DIVMTQSPATLSLSPGERATLSCRSSKSLQNVNGNTYLYWFQQKPGQSPQLLIYRMSNLNSGVPDRFSGSGSGTEFTLTISSLEPEDFAVYYCMQHLEYPITFGAGTKLEIKRTVAAPSVFIFPPSDEQLKSGTASVVCLLNNFYPREAKVQWKVDNALQSGNSQESVTEQDSKDSTYSLSSTLTLSKADYEKHKVYACEVTHQGLSSPVTKSFNRGEC
notes: as for B1
For B4, the “Fold vs WT IgG1” value [1] was 9.67 fold, the Kd [1] was 88.8 nM and the binding result [2] was “no binding”. For the same binder, the binding result [3] was “no binding”, the binding result [4] was “no binding” and the “Fold vs WT IgG1” value [5] was 25 fold. The Kd [5] was 58.7 nM.

B5: L235Y/S239D/S267E (antibody, human IgG1, kappa)
heavy: EVQLVESGGGLVKPGGSLKLSCAASGYTFTSYVMHWVRQAPGKGLEWIGYINPYNDGTKYNEKFQGRVTISSDKSISTAYMELSSLRSEDTAMYYCARGTYYYGTRVFDYWGQGTLVTVSSASTKGPSVFPLAPSSKSTSGGTAALGCLVKDYFPEPVTVSWNSGALTSGVHTFPAVLQSSGLYSLSSVVTVPSSSLGTQTYICNVNHKPSNTKVDKKVEPKSCDKTHTCPPCPAPELYGGPDVFLFPPKPKDTLMISRTPEVTCVVVDVEHEDPEVKFNWYVDGVEVHNAKTKPREEQYNSTYRVVSVLTVLHQDWLNGKEYKCKVSNKALPAPIEKTISKAKGQPREPQVYTLPPSREEMTKNQVSLTCLVKGFYPSDIAVEWESNGQPENNYKTTPPVLDSDGSFFLYSKLTVDKSRWQQGNVFSCSVMHEALHNHYTQKSLSLSPGK
light: DIVMTQSPATLSLSPGERATLSCRSSKSLQNVNGNTYLYWFQQKPGQSPQLLIYRMSNLNSGVPDRFSGSGSGTEFTLTISSLEPEDFAVYYCMQHLEYPITFGAGTKLEIKRTVAAPSVFIFPPSDEQLKSGTASVVCLLNNFYPREAKVQWKVDNALQSGNSQESVTEQDSKDSTYSLSSTLTLSKADYEKHKVYACEVTHQGLSSPVTKSFNRGEC
notes: as for B1
B5 was tested, and the “Fold vs WT IgG1” value [1] was 98.9 fold, the Kd [1] was 8.68 nM and the “Fold vs WT IgG1” value [2] was 1.05 fold. The Kd [2] was 617 nM, the “Fold vs WT IgG1” value [3] was 2.6 fold and the Kd [3] was 73.5 nM. For the same binder, the “Fold vs WT IgG1” value [4] was 1.07 fold, the Kd [4] was 0.307 nM and the “Fold vs WT IgG1” value [5] was 116 fold. It also gave a Kd [5] of 12.6 nM.

B6: L235Y/S267E/H268E (antibody, human IgG1, kappa)
heavy: EVQLVESGGGLVKPGGSLKLSCAASGYTFTSYVMHWVRQAPGKGLEWIGYINPYNDGTKYNEKFQGRVTISSDKSISTAYMELSSLRSEDTAMYYCARGTYYYGTRVFDYWGQGTLVTVSSASTKGPSVFPLAPSSKSTSGGTAALGCLVKDYFPEPVTVSWNSGALTSGVHTFPAVLQSSGLYSLSSVVTVPSSSLGTQTYICNVNHKPSNTKVDKKVEPKSCDKTHTCPPCPAPELYGGPSVFLFPPKPKDTLMISRTPEVTCVVVDVEEEDPEVKFNWYVDGVEVHNAKTKPREEQYNSTYRVVSVLTVLHQDWLNGKEYKCKVSNKALPAPIEKTISKAKGQPREPQVYTLPPSREEMTKNQVSLTCLVKGFYPSDIAVEWESNGQPENNYKTTPPVLDSDGSFFLYSKLTVDKSRWQQGNVFSCSVMHEALHNHYTQKSLSLSPGK
light: DIVMTQSPATLSLSPGERATLSCRSSKSLQNVNGNTYLYWFQQKPGQSPQLLIYRMSNLNSGVPDRFSGSGSGTEFTLTISSLEPEDFAVYYCMQHLEYPITFGAGTKLEIKRTVAAPSVFIFPPSDEQLKSGTASVVCLLNNFYPREAKVQWKVDNALQSGNSQESVTEQDSKDSTYSLSSTLTLSKADYEKHKVYACEVTHQGLSSPVTKSFNRGEC
notes: as for B1
In the case of B6, the “Fold vs WT IgG1” value [1] is reported as 48.2 fold, the Kd [1] is reported as 17.8 nM and the “Fold vs WT IgG1” value [2] is reported as 0.157 fold. The Kd [2] was 4130 nM, the “Fold vs WT IgG1” value [3] was 0.428 fold and the Kd [3] was 447 nM. The “Fold vs WT IgG1” value [4] was 0.0103 fold, the Kd [4] was 32.1 nM and the “Fold vs WT IgG1” value [5] was 69.9 fold. It also gave a Kd [5] of 21 nM.

B7: L235Y/S267E/L328F (antibody, human IgG1, kappa)
heavy: EVQLVESGGGLVKPGGSLKLSCAASGYTFTSYVMHWVRQAPGKGLEWIGYINPYNDGTKYNEKFQGRVTISSDKSISTAYMELSSLRSEDTAMYYCARGTYYYGTRVFDYWGQGTLVTVSSASTKGPSVFPLAPSSKSTSGGTAALGCLVKDYFPEPVTVSWNSGALTSGVHTFPAVLQSSGLYSLSSVVTVPSSSLGTQTYICNVNHKPSNTKVDKKVEPKSCDKTHTCPPCPAPELYGGPSVFLFPPKPKDTLMISRTPEVTCVVVDVEHEDPEVKFNWYVDGVEVHNAKTKPREEQYNSTYRVVSVLTVLHQDWLNGKEYKCKVSNKAFPAPIEKTISKAKGQPREPQVYTLPPSREEMTKNQVSLTCLVKGFYPSDIAVEWESNGQPENNYKTTPPVLDSDGSFFLYSKLTVDKSRWQQGNVFSCSVMHEALHNHYTQKSLSLSPGK
light: DIVMTQSPATLSLSPGERATLSCRSSKSLQNVNGNTYLYWFQQKPGQSPQLLIYRMSNLNSGVPDRFSGSGSGTEFTLTISSLEPEDFAVYYCMQHLEYPITFGAGTKLEIKRTVAAPSVFIFPPSDEQLKSGTASVVCLLNNFYPREAKVQWKVDNALQSGNSQESVTEQDSKDSTYSLSSTLTLSKADYEKHKVYACEVTHQGLSSPVTKSFNRGEC
notes: as for B1
In the case of B7, the “Fold vs WT IgG1” value [1] is reported as 171 fold, the Kd [1] is reported as 5.02 nM and the “Fold vs WT IgG1” value [2] is reported as 0.758 fold. For the same binder, the Kd [2] was 853 nM, the binding result [3] was “no binding” and the “Fold vs WT IgG1” value [4] was 0.00436 fold. For the same binder, the Kd [4] was 75.5 nM, the “Fold vs WT IgG1” value [5] was 187 fold and the Kd [5] was 7.83 nM.

Source: US20130315910A1 (Xencor, published 2013)
